This note sets out measurements from US20240218070A1 (MERUS N V, published 2024).

First the molecules themselves.
T1: huFAP-His recombinant protein (R&D Systems cat. #3715-SE) (human, UniProt Q12884 26-760)
T1 construct: Bought His-tagged recombinant protein; also called huFAP protein; human FAP (R&D, cat. No. 3715-SE)
T1 sequence: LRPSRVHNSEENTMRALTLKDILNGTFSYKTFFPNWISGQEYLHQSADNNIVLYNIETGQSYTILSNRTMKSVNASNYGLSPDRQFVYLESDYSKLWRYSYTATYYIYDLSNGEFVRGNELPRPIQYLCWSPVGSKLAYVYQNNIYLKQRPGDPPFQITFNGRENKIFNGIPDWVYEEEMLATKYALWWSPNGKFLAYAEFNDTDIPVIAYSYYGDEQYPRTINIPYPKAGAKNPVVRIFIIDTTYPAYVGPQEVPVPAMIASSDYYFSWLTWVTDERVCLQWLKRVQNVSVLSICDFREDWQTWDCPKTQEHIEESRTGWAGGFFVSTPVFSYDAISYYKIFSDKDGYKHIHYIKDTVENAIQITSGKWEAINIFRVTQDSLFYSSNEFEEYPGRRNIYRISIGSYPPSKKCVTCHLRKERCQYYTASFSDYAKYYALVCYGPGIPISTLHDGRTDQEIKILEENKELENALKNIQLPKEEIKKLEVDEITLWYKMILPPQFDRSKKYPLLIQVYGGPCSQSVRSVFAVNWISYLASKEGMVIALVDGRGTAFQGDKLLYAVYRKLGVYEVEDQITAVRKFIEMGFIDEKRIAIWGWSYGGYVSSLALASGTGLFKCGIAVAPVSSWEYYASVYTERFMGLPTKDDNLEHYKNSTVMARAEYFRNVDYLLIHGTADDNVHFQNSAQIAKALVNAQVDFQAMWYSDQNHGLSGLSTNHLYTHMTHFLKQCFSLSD

B1: anti-human FAP bivalent monospecific IgG comprising heavy chain variable region SEQ ID NO: 15 (antibody, V domains shown)
VH: QLQLQESGPGLVKPSETLSLTCTVSGGSISSSSYFWAWIRQPPGKGLEFIGNIYYSGSTYYNPSLKSRVTISVDTSKNQFSLKLSSVTAADTAVYYCARPSYYGSGNYYFAFWGQGTLVTVSS
VL: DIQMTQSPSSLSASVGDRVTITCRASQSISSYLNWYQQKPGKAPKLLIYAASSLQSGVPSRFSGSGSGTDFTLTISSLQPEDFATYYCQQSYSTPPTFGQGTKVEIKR
notes: IgG1 format, common light chain VK1-39/JK1
B2: anti-human FAP bivalent monospecific IgG comprising heavy chain variable region SEQ ID NO: 19 (antibody, V domains shown)
VH: EVQLVESGGGLVKPGGSLRLSCAASGFPFNYAWMSWVRQAPGKGLEWVGRIKPKTSGGATDYAAPVKDRFTISRDDSRNTLYLQMNSLKTEDTAVYYCSAREDIWNFFFDLWGQGTLVTVSS
VL: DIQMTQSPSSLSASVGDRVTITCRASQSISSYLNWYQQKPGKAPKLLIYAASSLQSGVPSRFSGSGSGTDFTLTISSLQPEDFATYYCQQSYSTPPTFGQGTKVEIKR
notes: as for B1
B3: anti-human FAP bivalent monospecific IgG comprising heavy chain variable region SEQ ID NO: 11 (antibody, V domains shown)
VH: EVQLVESGGGLVQPGGSLRLSCAASGFTFSSYAMIWVRQAPGKGLEWVSAISGSGGYTFNADSVKGRFTMSRDNSKNTLYLQMNSLRAEDTAVYYCAKRDGGYEGGAFDIWGQGTLVTVSS
VL: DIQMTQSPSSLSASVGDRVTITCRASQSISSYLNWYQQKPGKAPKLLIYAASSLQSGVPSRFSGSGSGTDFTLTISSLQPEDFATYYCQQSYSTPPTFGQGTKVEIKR
notes: as for B1

In this experiment the target is T1, huFAP-His recombinant protein (R&D …). The experiment can be described thus: competition ELISA, huFAP-His coated, IgG at 0.05 ug/ml; competitor sibrotuzumab analog Fab. On the procedure:
ELISA was used to investigate the competitive binding of the human anti-FAP antibody panel with Fab fragments generated from the sibrotuzumab analog to huFAP-His protein (R&D Systems cat. #3715-SE).
The huFAP-His protein was coated (0.5 ug/ml, 50 μl/well) on two 96-wells ELISA plates (Certified Nunc-Immuno Maxisorp F96, Greiner Bio-One, cat. #655061). The plates were sealed (EASYseal, Greiner, cat. #676001) and incubated overnight at 4° ° C. The plates were washed with PBS/0.05% Tween 20 (PBS, Gibco, cat. #10010-015) (Tween 20, Merck, cat. #8.22184.0500) using the ELISA plate washer (BioTek 405 TS). Afterwards, the plates were emptied. Fab fragments of sibrotuzumab analog (25 ug/ml) were incubated on one plate for 30 min at RT, whereas the second plate was incubated with 300 μl/well PBS/2% BSA block buffer (BSA, Sigma, cat. #A3294-500 g) for 1 hour at RT. Afterwards, the plates were emptied. Antibodies from the human anti-FAP panel (0.05 ug/ml, 50 μl/well) were added, plates were covered with a EASYseal, and incubated for one hour at RT. The plates were washed three times with wash buffer using the ELISA washer and emptied. […] The plates were then washed three times with wash buffer using the ELISA washer and emptied. BD OptEIATMB Substrate Reagent Set (BD, cat. #555214) was then added to the wells (50 μl/well) and developed for maximal 10 min. Afterwards, 1 M H2SO4 (50 μl/well) was added to the wells to stop the staining reaction (color changes from blue to yellow). The plates were then measured using an ELISA plate reader (BioTek ELx808).
(In general: An ELISA detects its analyte on a solid surface through an enzyme-linked reagent.)
Turning to B1, the binding result is on record as “binds”.

Regarding B2, the binding result is “binds”.

Consider B3, for which the binding result is on record as “binds”.
